Where “and” joins values, the source holds several entries; their conditions need not be identical. Identical values can stand only once. Like-named read-outs stand apart in the source and are kept apart here.
Assays:
[1] = molecular target: purified recombinant Ded1p (S. cerevisiae) (UniProt P06634); test: cross-linking
[2] = molecular target: purified recombinant Ded1p (S. cerevisiae) (UniProt P06634); test: cross-linking; remark: listed apart in the source

stoichiometry N [1]: < 5
stoichiometry N [2]: 2 and 3
Substance: purified recombinant Ded1p (from UniProt P06634 1-604) (natural protein; other documents disagree on this pair)
